Several values for one entry are separate records, joined by “and”; a condition that tells them apart may be missing. Equal entries are not always repeated.

The text below walks through data of US20170015738A1.

For assay [1], the target named is pathological hyperphosphorylated tau from human Alzheimer's disease brain, sarkosyl-insoluble P3 fraction (human) (UniProt P10636). Description: MSD, AD-P3 coated plate (FIG. 34); C10-2 1000 ng/ml + PBS/0.1% BSA (no competitor).
The target is the same in assay [2]. Description: MSD, AD-P3 coated plate (FIG. 34); C10-2 10000 ng/ml + PBS/0.1% BSA (no competitor).
Assay [3] has the same target. The experiment in a line: MSD, AD-P3 coated plate (FIG. 34); C10-2 100 ng/ml + PBS/0.1% BSA (no competitor).
Assay [4] has the same target. The experiment in a line: MSD, AD-P3 coated plate (FIG. 34); C10-2 3 ng/ml + 10 µM tau peptide as competitor.
For assay [5] the target is unchanged. The experiment in a line: MSD, AD-P3 coated plate (FIG. 34); C10-2 10000 ng/ml + 10 µM tau peptide as competitor.
The target is the same in assay [6]. Description: MSD, AD-P3 coated plate (FIG. 34); C10-2 30 ng/ml + 10 µM tau peptide as competitor.
Assay [7] shares this target. Description: MSD, AD-P3 coated plate (FIG. 34); C10-2 1000 ng/ml + 10 µM tau peptide as competitor.
For assay [8] the target is unchanged. The experiment in a line: MSD, AD-P3 coated plate (FIG. 34); C10-2 100 ng/ml + 10 µM tau peptide as competitor.
Assay [9] shares this target. Description: MSD, AD-P3 coated plate (FIG. 34); C10-2 300 ng/ml + 10 µM tau peptide as competitor.
Assay [10] has the same target. The experiment in a line: MSD, AD-P3 coated plate (FIG. 34); C10-2 3 ng/ml + PBS/0.1% BSA (no competitor).
In assay [11] the target is hyperphosphorylated tau phosphorylated at serine 396 in human Alzheimer brain (extracts and sections) (human) (UniProt P10636). Description: immunodepletion of Alzheimer brain extract with antibody on Protein G Dynabeads; western blot.
Assay [12] deals with pathological hyperphosphorylated tau from human Alzheimer's disease brain, sarkosyl-insoluble P3 fraction (human) (UniProt P10636). The experiment in a line: MSD, AD-P3 coated plate (FIG. 34); C10-2 30 ng/ml + PBS/0.1% BSA (no competitor).
Assay [13] has the same target. The experiment in a line: fluid phase inhibition of p-tau antigen capture in mC10-2 coated plate (comparison with PHF-13).
For assay [14] the target is unchanged. The experiment in a line: fluid phase MSD ELISA: inhibition of AD-P3 tau antigen capture. On the technique in general: In an ELISA, binding on a coated surface is turned into a signal by an enzyme label.
For assay [15] the target is unchanged. Description: fluid phase MSD ELISA: antibody mixed with AD P3 in solution, capture on C10-2 coated plates.
For assay [16] the target is unchanged. The experiment in a line: MSD, AD-P3 coated plate (FIG. 34); C10-2 300 ng/ml + PBS/0.1% BSA (no competitor).
For assay [17] the target is unchanged. The experiment in a line: fluid phase MSD ELISA: inhibition of tau antigen capture.
Assay [18] has the same target. Description: MSD ELISA on immobilised P3 tau; ratio of binding to AD over healthy control at saturation.
For assay [19] the target is unchanged. Description: MSD, AD-P3 coated plate (FIG. 34); C10-2 10 ng/ml + 10 µM tau peptide as competitor.
Assay [20] has the same target. The experiment in a line: fluid phase inhibition of Ptau antigen capture in C10-2 coated plate (comparison with mD1.2).
The target is the same in assay [21]. Description: MSD, AD-P3 coated plate (FIG. 34); C10-2 10 ng/ml + PBS/0.1% BSA (no competitor).
For assay [22], the target named is hyperphosphorylated tau phosphorylated at serine 396 in human Alzheimer brain (extracts and sections) (human) (UniProt P10636). Description: immunodepletion of Alzheimer brain extract; western blot; compared to hHel control antibody. In general terms: A western blot detects proteins with antibodies after separation by electrophoresis.
For assay [23], the target named is pathological hyperphosphorylated tau from human Alzheimer's disease brain, sarkosyl-insoluble P3 fraction (human) (UniProt P10636). Description: MSD, AD-P3 coated plate (FIG. 34); PHF 13 at '30000' (unit inferred) + PBS/0.1% BSA (no competitor).
The target is the same in assay [24]. The experiment in a line: MSD, AD-P3 coated plate (FIG. 34); PHF 13 at '300000' (unit inferred) + PBS/0.1% BSA (no competitor).
For assay [25] the target is unchanged. Description: MSD, AD-P3 coated plate (FIG. 34); PHF 13 at '10000' (unit inferred) + PBS/0.1% BSA (no competitor).
Assay [26] shares this target. The experiment in a line: MSD, AD-P3 coated plate (FIG. 34); PHF 13 at '1000' (unit inferred) + PBS/0.1% BSA (no competitor).
Assay [27] has the same target. The experiment in a line: MSD, AD-P3 coated plate (FIG. 34); PHF 13 at '1000' (unit inferred) + 10 µM tau peptide as competitor.
The target is the same in assay [28]. Description: MSD, AD-P3 coated plate (FIG. 34); PHF 13 at '30000' (unit inferred) + 10 µM tau peptide as competitor.
For assay [29] the target is unchanged. Description: MSD, AD-P3 coated plate (FIG. 34); PHF 13 at '1000000' (unit inferred) + 10 µM tau peptide as competitor.
Assay [30] has the same target. The experiment in a line: fluid phase inhibition of p-tau antigen capture in mC10-2 coated plate.
The target is the same in assay [31]. The experiment in a line: MSD, AD-P3 coated plate (FIG. 34); PHF 13 at '100000' (unit inferred) + 10 µM tau peptide as competitor.
The target is the same in assay [32]. The experiment in a line: MSD, AD-P3 coated plate (FIG. 34); PHF 13 at '1000000' (unit inferred) + PBS/0.1% BSA (no competitor).
For assay [33] the target is unchanged. The experiment in a line: MSD, AD-P3 coated plate (FIG. 34); PHF 13 at '300000' (unit inferred) + 10 µM tau peptide as competitor.
Assay [34] has the same target. Description: MSD, AD-P3 coated plate (FIG. 34); PHF 13 at '3000' (unit inferred) + 10 µM tau peptide as competitor.
The target is the same in assay [35]. The experiment in a line: MSD, AD-P3 coated plate (FIG. 34); PHF 13 at '3000' (unit inferred) + PBS/0.1% BSA (no competitor).
For assay [36] the target is unchanged. The experiment in a line: MSD, AD-P3 coated plate (FIG. 34); PHF 13 at '100000' (unit inferred) + PBS/0.1% BSA (no competitor).
The target is the same in assay [37]. The experiment in a line: MSD, AD-P3 coated plate (FIG. 34); PHF 13 at '10000M' (unit not explained) + 10 µM tau peptide as competitor.
The target of assay [38] is normal P301L mutant human 4R0N tau from rTg4510 mouse brain (55 kDa band) (human) (UniProt P10636). Description: immunodepletion of rTg4510 brain extracts; western blot quantification (FIG. 14).
Chain of normal P301L mutant human 4R0N tau from rTg4510 mouse brain (55 kDa band) (human) (P10636 other isoform, or with tags, fused parts or gaps P301L P301L): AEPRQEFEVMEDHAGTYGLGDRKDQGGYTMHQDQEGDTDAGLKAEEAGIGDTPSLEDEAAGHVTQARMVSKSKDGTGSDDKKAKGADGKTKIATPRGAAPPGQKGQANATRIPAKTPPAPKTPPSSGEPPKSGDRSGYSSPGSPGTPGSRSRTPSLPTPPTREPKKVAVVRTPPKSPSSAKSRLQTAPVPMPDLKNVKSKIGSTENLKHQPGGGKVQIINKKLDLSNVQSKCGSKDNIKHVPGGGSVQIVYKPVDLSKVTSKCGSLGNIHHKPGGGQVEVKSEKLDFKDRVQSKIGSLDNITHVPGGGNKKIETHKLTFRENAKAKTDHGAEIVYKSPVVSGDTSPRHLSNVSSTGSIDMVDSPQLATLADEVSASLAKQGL

Chain of pathological hyperphosphorylated tau from human Alzheimer's disease brain, sarkosyl-insoluble P3 fraction (human) (P10636 other isoform, or with tags, fused parts or gaps limits assumed): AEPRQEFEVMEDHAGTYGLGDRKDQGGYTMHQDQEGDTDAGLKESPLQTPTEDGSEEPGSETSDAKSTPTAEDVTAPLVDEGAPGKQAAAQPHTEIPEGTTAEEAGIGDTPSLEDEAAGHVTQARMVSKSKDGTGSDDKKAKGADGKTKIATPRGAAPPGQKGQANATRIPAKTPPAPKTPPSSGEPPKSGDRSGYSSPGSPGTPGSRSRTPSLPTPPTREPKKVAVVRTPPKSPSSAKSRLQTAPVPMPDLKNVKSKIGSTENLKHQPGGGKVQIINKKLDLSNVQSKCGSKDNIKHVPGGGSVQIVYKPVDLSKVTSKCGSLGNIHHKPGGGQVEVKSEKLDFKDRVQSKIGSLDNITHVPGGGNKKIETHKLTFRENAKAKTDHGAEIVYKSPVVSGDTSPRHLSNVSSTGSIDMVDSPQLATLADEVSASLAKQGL
Chain of hyperphosphorylated tau phosphorylated at serine 396 in human Alzheimer brain (extracts and sections) (human) (P10636 other isoform, or with tags, fused parts or gaps limits assumed): as above

For the substance Antibody C10-2 (murine), the mean Signal in assay [1] was determined as 38500 signal; in [2] it was 51200 signal; in assay [3] it was 21800 signal; in assay [4] it was 366 signal; in [5] it was 870 signal; in [6], 345 signal. For the same substance, the mean Signal in assay [7] came out at 451 signal; in [8], 357 signal; in assay [9], 407 signal; in [10], 1880 signal; in assay [12] it was 11900 signal; in assay [16], 30400 signal. Further, the mean Signal in assay [19] was found to be 383 signal; in assay [21], 5720 signal. The signal in assay [1] was 38200 signal and 38800 signal; in assay [2], 51300 signal and 51100 signal; in [3], 21900 signal and 21700 signal; in [4], 384 signal and 348 signal; in [5], 920 signal and 820 signal; in assay [6] it was 384 signal and 306 signal. Moreover, the signal was 462 signal and 439 signal in assay [7]; 401 signal and 313 signal in [8]; 434 signal and 379 signal in assay [9]; 1890 signal and 1870 signal in assay [10]; 12000 signal and 11800 signal in assay [12]; 30300 signal and 30500 signal in assay [16]. Besides, the signal is 398 signal and 367 signal in assay [19]; 5860 signal and 5580 signal in [21]. For the same substance, the percent removed by immunodepletion was found to be 90% in assay [11] and 93% in assay [22]. Further, the IC50 (as a rule, the midpoint of a concentration-inhibition curve) in assay [13] was 10 to 20 nM; in assay [14] it was 3 nM; in [15], 3 nM; in assay [17], 320 nM; in assay [20], 10 to 20 nM. In addition, the AD/ctrl in assay [18] is over 100 fold.

For “PHF13 (commercially available antibody for Tau phosphorylated at Ser 396)”, the mean Signal in assay [23] amounted to 1580 signal; in [24] it was 560 signal; in assay [25], 2880 signal; in assay [26], 12600 signal; in [27] it was 6900 signal; in [28], 481 signal. For the same substance, the mean Signal is 280 signal in [29]; 355 signal in [31]; 335 signal in assay [32]; 299 signal in [33]; 2180 signal in assay [34]; 5790 signal in [35]. The mean Signal in [36] is 852 signal; in assay [37] it was 953 signal. Further, the signal in assay [23] is 1660 signal and 1500 signal; in assay [24], 568 signal and 551 signal; in [25] it was 2900 signal and 2860 signal; in [26], 13700 signal and 11600 signal; in [27], 7540 signal and 6250 signal; in assay [28], 472 signal and 490 signal. Further, the signal is 284 signal and 276 signal in assay [29]; 370 signal and 340 signal in assay [31]; 358 signal and 312 signal in [32]; 305 signal and 292 signal in [33]; 2280 signal and 2080 signal in [34]; 6130 signal and 5460 signal in assay [35]. Besides, the signal in [36] was 856 signal and 847 signal; in assay [37], 1020 signal and 886 signal. Moreover, the half-maximal inhibitory concentration (IC50) in assay [30] fell in the range of 500 to 1000 nM.

“Tau5 (commercial total Tau antibody, Invitrogen)”: the percent reduction of the 55 kDa band in assay [38] amounted to 74%.
